Experimental data taken from patent US20060067910A1, “High-molecular weight derivatives of camptothecins” (priority 2002, published 2006).

Experiments:
[1] = system: Mouse colon cancer Colon 26 tumor; assay: Antitumor action, relative tumor volume after single intravenous administration; assay type: in vivo; conditions: with smaller administration amount; single i.v. administration
Experimental: As an indication of toxicity, variation in body weight was also measured (Table 2).

[2] = Variation in body weight as an indication of toxicity, Colon 26 tumor-bearing mice; assay type: in vivo, mouse
Experimental: Mouse colon cancer Colon 26 tumor under successive cultivation under mouse skin was cut into blocks of approximately 2 mm square, and transplanted to under mouse skin using a trochar. […] As an indication of toxicity, variation in body weight was also measured (Table 2).

## condensate of a block copolymer of methoxypolyethylene glycol having a molecular weight of approximately 12000 and polyglutamic acid having a polymerization number of approximately 28, with 7-ethyl-10-hydroxycamptothecin [Compound 1]
[1]
  antitumor effect as compared with compound 2 (smaller drug content): higher antitumor effect
[2]; dose 22.5 mg/kg i.v. once, day 0 after administration
  variation in body weight: 1.0
[2]; dose 22.5 mg/kg i.v. once, day 2 after administration
  variation in body weight: 0.98
[2]; dose 22.5 mg/kg i.v. once, day 5 after administration
  variation in body weight: 1.02
[2]; dose 22.5 mg/kg i.v. once, day 9 after administration
  variation in body weight: 1.06
[2]; dose 22.5 mg/kg i.v. once, day 12 after administration
  variation in body weight: 1.03
[2]; dose 22.5 mg/kg i.v. once, day 14 after administration
  variation in body weight: 0.96
[2]; dose 45.0 mg/kg i.v. once, day 0 after administration
  variation in body weight: 1.0
[2]; dose 45.0 mg/kg i.v. once, day 2 after administration
  variation in body weight: 0.94
[2]; dose 45.0 mg/kg i.v. once, day 5 after administration
  variation in body weight: 0.91
[2]; dose 45.0 mg/kg i.v. once, day 7 after administration
  variation in body weight: 0.97
[2]; dose 45.0 mg/kg i.v. once, day 12 after administration
  variation in body weight: 1.03
[2]; dose 45.0 mg/kg i.v. once, day 14 after administration
  variation in body weight: 1.04

## condensate of a block copolymer of mono-methoxypolyethylene glycol having a molecular weight of approximately 12000 and polyglutamic acid having a polymerization number of approximately 7, with 7-ethyl-10-hydroxycamptothecin [Compound 2]
[2]; dose 90.0 mg/kg i.v. once, day 0 after administration
  variation in body weight: 1.0
[2]; dose 90.0 mg/kg i.v. once, day 2 after administration
  variation in body weight: 0.96
[2]; dose 90.0 mg/kg i.v. once, day 5 after administration
  variation in body weight: 1.00
[2]; dose 90.0 mg/kg i.v. once, day 12 after administration
  variation in body weight: 0.90
[2]; dose 90.0 mg/kg i.v. once, day 14 after administration
  variation in body weight: 0.83
[2]; dose 180.0 mg/kg i.v. once, day 0 after administration
  variation in body weight: 1.0
[2]; dose 180.0 mg/kg i.v. once, day 2 after administration
  variation in body weight: 0.91
[2]; dose 180.0 mg/kg i.v. once, day 5 after administration
  variation in body weight: 0.99
[2]; dose 180.0 mg/kg i.v. once, day 7 after administration
  variation in body weight: 0.99
[2]; dose 180.0 mg/kg i.v. once, day 9 after administration
  variation in body weight: 1.04
[2]; dose 180.0 mg/kg i.v. once, day 12 after administration
  variation in body weight: 0.94
[2]; dose 180.0 mg/kg i.v. once, day 14 after administration
  variation in body weight: 0.94
